According to patent US20230405119A1 (published 2023):

Target: IL13ra2-Fc
Experiment: yeast display flow cytometry titration

| Kd | Binder |
| --- | --- |
| 480 nM | RLK (ligand) GPVPPSTALRRLIEELVNITQNQKAPLCNGSMVWSINLTAGMYCAALESLINVSGCSAIEKTQRMLSGFCPHKVSAGQFSSLHVRDTKILVAQFVKDLLLHLKKLFKEGRFN |
| 200 nM | YLK (ligand) GPVPPSTALRYLIEELVNITQNQKAPLCNGSMVWSINLTAGMYCAALESLINVSGCSAIEKTQRMLSGFCPHKVSAGQFSSLHVRDTKILVAQFVKDLLLHLKKLFKEGRFN |
